According to article PMC6477152 (2019):

B1: FIP200ΔN1115:Luciferase [human] / GST:SINTBADaa5-85 [human] (parent complex)
chain 1: ENYQVGLAELRTLMTIEKDQCISELISRHEEESNILKAELNKVTSLHNQAFEIEKNLKEQIIELQSKLDSELSALERQKDEKITQQEEKYEAIIQNLEKDRQKLVSSQEQDREQLIQKLNCEKDEAIQTALKEFKLEREVVEKELLEKVKHLENQIAKSPAIDSTRGDSSSLVAELQEKLQEEKAKFLEQLEEQEKRKNEEMQNVRTSLIAEQQTNFNTVLTREKMRKENIINDLSDKLKSTMQQQERDKDLIESLSEDRARLLEEKKKLEEEVSKLRSSSFVPSPYVATAPELYGACAPELPGESDRSAVETADEGRVDSAMETSMMSVQENIHMLSEEKQRIMLLERTLQLKEEENKRLNQRLMSQSMSSVSSRHSEKIAIRDFQVGDLVLIILDERHDNYVLFTVSPTLYFLHSESLPALDLKPGEGASGASRRPWVLGKVMEKEYCQAKKAQNRFKVPLGTKFYRVKAVSWNKKV
chain 2: FEDDISILTQEALGPSEVWLDSPGDPSLGGDMCSASHFALITAYGDIKERLGGLERENATLRRRLKVYEIKYPLISDFGEE

Variants of: B1
Experiment: LUMIER assay; HEK293ET cell lysates; bacterially expressed GST bait; read off a plot

Q: chain 1 ENYQVGLAELRTLMTIEKDQCISELISRHEEESNILKAELNKVTSLHNQAFEIEKNLKEQIIELQSKLDSELSALERQKDEKITQQEEKYEAIIQNLEKDRQKLVSSQEQDREQLIQKLNCEKDEAIQTALKEFKLEREVVEKELLEKVKHLENQIAKSPAIDSTRGDSSSLVAELQEKLQEEKAKFLEQLEEQEKRKNEEMQNVRTSLIAEQQTNFNTVLTREKMRKENIINDLSDKLKSTMQQQERDKDLIESLSEDRARLLEEKKKLEEEVSKLRSSSFVPSPYVATAPELYGACAPELPGESDRSAVETADEGRVDSAMETSMMSVQENIHMLSEEKQRIMLLARTLQLKEEENKRLNQRLMSQSMSSVSSRHSEKIAIRDFQVGDLVLIILDERHDNYVLFTVSPTLYFLHSESLPALDLKPGEGASGASRRPWVLGKVMEKEYCQAKKAQNRFKVPLGTKFYRVKAVSWNKKV [chain 1 E348A] was tested. Which response did it give?
A: Its response is ~200 fold binding.

Q: With chain 1 ENYQVGLAELRTLMTIEKDQCISELISRHEEESNILKAELNKVTSLHNQAFEIEKNLKEQIIELQSKLDSELSALERQKDEKITQQEEKYEAIIQNLEKDRQKLVSSQEQDREQLIQKLNCEKDEAIQTALKEFKLEREVVEKELLEKVKHLENQIAKSPAIDSTRGDSSSLVAELQEKLQEEKAKFLEQLEEQEKRKNEEMQNVRTSLIAEQQTNFNTVLTREKMRKENIINDLSDKLKSTMQQQERDKDLIESLSEDRARLLEEKKKLEEEVSKLRSSSFVPSPYVATAPELYGACAPELPGESDRSAVETADEGRVDSAMETSMMSVQENIHMLSEEKQRIMLLEATLQLKEEENKRLNQRLMSQSMSSVSSRHSEKIAIRDFQVGDLVLIILDERHDNYVLFTVSPTLYFLHSESLPALDLKPGEGASGASRRPWVLGKVMEKEYCQAKKAQNRFKVPLGTKFYRVKAVSWNKKV [chain 1 R349A] as the variant, how does the response read?
A: The response was ~170 fold binding.

Q: Which response does the source give for chain 1 ENYQVGLAELRTLMTIEKDQCISELISRHEEESNILKAELNKVTSLHNQAFEIEKNLKEQIIELQSKLDSELSALERQKDEKITQQEEKYEAIIQNLEKDRQKLVSSQEQDREQLIQKLNCEKDEAIQTALKEFKLEREVVEKELLEKVKHLENQIAKSPAIDSTRGDSSSLVAELQEKLQEEKAKFLEQLEEQEKRKNEEMQNVRTSLIAEQQTNFNTVLTREKMRKENIINDLSDKLKSTMQQQERDKDLIESLSEDRARLLEEKKKLEEEVSKLRSSSFVPSPYVATAPELYGACAPELPGESDRSAVETADEGRVDSAMETSMMSVQENIHMLSEEKQRIMLLERTLQAKEEENKRLNQRLMSQSMSSVSSRHSEKIAIRDFQVGDLVLIILDERHDNYVLFTVSPTLYFLHSESLPALDLKPGEGASGASRRPWVLGKVMEKEYCQAKKAQNRFKVPLGTKFYRVKAVSWNKKV [chain 1 L353A] here?
A: The response was ~170 fold binding.

Q: How did the response turn out when chain 1 ENYQVGLAELRTLMTIEKDQCISELISRHEEESNILKAELNKVTSLHNQAFEIEKNLKEQIIELQSKLDSELSALERQKDEKITQQEEKYEAIIQNLEKDRQKLVSSQEQDREQLIQKLNCEKDEAIQTALKEFKLEREVVEKELLEKVKHLENQIAKSPAIDSTRGDSSSLVAELQEKLQEEKAKFLEQLEEQEKRKNEEMQNVRTSLIAEQQTNFNTVLTREKMRKENIINDLSDKLKSTMQQQERDKDLIESLSEDRARLLEEKKKLEEEVSKLRSSSFVPSPYVATAPELYGACAPELPGESDRSAVETADEGRVDSAMETSMMSVQENIHMLSEEKQRIMLLERTAQLKEEENKRLNQRLMSQSMSSVSSRHSEKIAIRDFQVGDLVLIILDERHDNYVLFTVSPTLYFLHSESLPALDLKPGEGASGASRRPWVLGKVMEKEYCQAKKAQNRFKVPLGTKFYRVKAVSWNKKV [chain 1 L351A] was run?
A: Its response is ~110 fold binding.

Q: For chain 1 ENYQVGLAELRTLMTIEKDQCISELISRHEEESNILKAELNKVTSLHNQAFEIEKNLKEQIIELQSKLDSELSALERQKDEKITQQEEKYEAIIQNLEKDRQKLVSSQEQDREQLIQKLNCEKDEAIQTALKEFKLEREVVEKELLEKVKHLENQIAKSPAIDSTRGDSSSLVAELQEKLQEEKAKFLEQLEEQEKRKNEEMQNVRTSLIAEQQTNFNTVLTREKMRKENIINDLSDKLKSTMQQQERDKDLIESLSEDRARLLEEKKKLEEEVSKLRSSSFVPSPYVATAPELYGACAPELPGESDRSAVETADEGRVDSAMETSMMSVQENIHMLSEEKQRIMLLERALQLKEEENKRLNQRLMSQSMSSVSSRHSEKIAIRDFQVGDLVLIILDERHDNYVLFTVSPTLYFLHSESLPALDLKPGEGASGASRRPWVLGKVMEKEYCQAKKAQNRFKVPLGTKFYRVKAVSWNKKV [chain 1 T350A], which response is on record?
A: Its response is ~180 fold binding.

Q: How did the response turn out when chain 1 ENYQVGLAELRTLMTIEKDQCISELISRHEEESNILKAELNKVTSLHNQAFEIEKNLKEQIIELQSKLDSELSALERQKDEKITQQEEKYEAIIQNLEKDRQKLVSSQEQDREQLIQKLNCEKDEAIQTALKEFKLEREVVEKELLEKVKHLENQIAKSPAIDSTRGDSSSLVAELQEKLQEEKAKFLEQLEEQEKRKNEEMQNVRTSLIAEQQTNFNTVLTREKMRKENIINDLSDKLKSTMQQQERDKDLIESLSEDRARLLEEKKKLEEEVSKLRSSSFVPSPYVATAPELYGACAPELPGESDRSAVETADEGRVDSAMETSMMSVQENIHMLSEEKQRIMLLERTLQLKEEENKRLNQRLMSQSMSSVSSRHSEKIAIRDFQVGDLVLIILDERHDNYVLFTVSPTLYFLHSESLPALDLKPGEGASGASRRPWVLGKVMEKEYCQSKKAQNRFKVPLGTKFYRVKAVSWNKKV [chain 1 A452S] was run?
A: The response was ~59 fold binding.

Q: Which response does the source give for chain 1 ENYQVGLAELRTLMTIEKDQCISELISRHEEESNILKAELNKVTSLHNQAFEIEKNLKEQIIELQSKLDSELSALERQKDEKITQQEEKYEAIIQNLEKDRQKLVSSQEQDREQLIQKLNCEKDEAIQTALKEFKLEREVVEKELLEKVKHLENQIAKSPAIDSTRGDSSSLVAELQEKLQEEKAKFLEQLEEQEKRKNEEMQNVRTSLIAEQQTNFNTVLTREKMRKENIINDLSDKLKSTMQQQERDKDLIESLSEDRARLLEEKKKLEEEVSKLRSSSFVPSPYVATAPELYGACAPELPGESDRSAVETADEGRVDSAMETSMMSVQENIHMLSEEKQRIMLAERTLQLKEEENKRLNQRLMSQSMSSVSSRHSEKIAIRDFQVGDLVLIILDERHDNYVLFTVSPTLYFLHSESLPALDLKPGEGASGASRRPWVLGKVMEKEYCQAKKAQNRFKVPLGTKFYRVKAVSWNKKV [chain 1 L347A] here?
A: Its response is ~99 fold binding.

Q: Which response does the source give for chain 1 ENYQVGLAELRTLMTIEKDQCISELISRHEEESNILKAELNKVTSLHNQAFEIEKNLKEQIIELQSKLDSELSALERQKDEKITQQEEKYEAIIQNLEKDRQKLVSSQEQDREQLIQKLNCEKDEAIQTALKEFKLEREVVEKELLEKVKHLENQIAKSPAIDSTRGDSSSLVAELQEKLQEEKAKFLEQLEEQEKRKNEEMQNVRTSLIAEQQTNFNTVLTREKMRKENIINDLSDKLKSTMQQQERDKDLIESLSEDRARLLEEKKKLEEEVSKLRSSSFVPSPYVATAPELYGACAPELPGESDRSAVETADEGRVDSAMETSMMSVQENIHMLSEEKQRIMLLERTLALKEEENKRLNQRLMSQSMSSVSSRHSEKIAIRDFQVGDLVLIILDERHDNYVLFTVSPTLYFLHSESLPALDLKPGEGASGASRRPWVLGKVMEKEYCQAKKAQNRFKVPLGTKFYRVKAVSWNKKV [chain 1 Q352A] here?
A: Its response is ~210 fold binding.

Variants of: B1
Experiment: LUMIER assay; HEK293ET cell lysates; read off a plot

Q: Which response does the source give for chain 1 ENYQVGLAELRTLMTIEKDQCISELISRHEEESNILKAELNKVTSLHNQAFEIEKNLKEQIIELQSKLDSELSALERQKDEKITQQEEKYEAIIQNLEKDRQKLVSSQEQDREQLIQKLNCEKDEAIQTALKEFKLEREVVEKELLEKVKHLENQIAKSPAIDSTRGDSSSLVAELQEKLQEEKAKFLEQLEEQEKRKNEEMQNVRTSLIAEQQTNFNTVLTREKMRKENIINDLSDKLKSTMQQQERDKDLIESLSEDRARLLEEKKKLEEEVSKLRSSSFVPSPYVATAPELYGACAPELPGESDRSAVETADEGRVDSAMETSMMSVQENIHMLSEEKQRIMLLERTLQLKEEENKRLNQRLMSQSMSSVSSRHSEKIAIRDFQVGDLVLIILDERHDNYVLFTVSPTLYFLHSESLPALDLKPGEGASGASRRPWVLGKVMEKEYCQAKKAQSRFKVPLGTKFYRVKAVSWNKKV [chain 1 N457S] here?
A: The response was ~7.8 fold binding.

Q: chain 1 ENYQVGLAELRTLMTIEKDQCISELISRHEEESNILKAELNKVTSLHNQAFEIEKNLKEQIIELQSKLDSELSALERQKDEKITQQEEKYEAIIQNLEKDRQKLVSSQEQDREQLIQKLNCEKDEAIQTALKEFKLEREVVEKELLEKVKHLENQIAKSPAIDSTRGDSSSLVAELQEKLQEEKAKFLEQLEEQEKRKNEEMQNVRTSLIAEQQTNFNTVLTREKMRKENIINDLSDKLKSTMQQQERDKDLIESLSEDRARLLEEKKKLEEEVSKLRSSSFVPSPYVATAPELYGACAPELPGESDRSAVETADEGRVDSAMETSMMSVQENIHMLSEEKQRIMLLERTLQLKEEENKRLNQRLMSQSMSSVSSRHSEKIAIRDFQVGDLVLIILDERHDNYVLFTVSPTLYFLHSESLPALDLKPGEGASGASRRPWVLGKVMEKEYCQAKKAQNRSKVPLGTKFYRVKAVSWNKKV [chain 1 F459S] was tested. Which response did it give?
A: Its response is ~6.2 fold binding.

Q: How did the response turn out when chain 1 ENYQVGLAELRTLMTIEKDQCISELISRHEEESNILKAELNKVTSLHNQAFEIEKNLKEQIIELQSKLDSELSALERQKDEKITQQEEKYEAIIQNLEKDRQKLVSSQEQDREQLIQKLNCEKDEAIQTALKEFKLEREVVEKELLEKVKHLENQIAKSPAIDSTRGDSSSLVAELQEKLQEEKAKFLEQLEEQEKRKNEEMQNVRTSLIAEQQTNFNTVLTREKMRKENIINDLSDKLKSTMQQQERDKDLIESLSEDRARLLEEKKKLEEEVSKLRSSSFVPSPYVATAPELYGACAPELPGESDRSAVETADEGRVDSAMETSMMSVQENIHMLSEEKQRIMLLERTLQLKEEENKRLNQRLMSQSMSSVSSRHSEKIAIRDFQVGDLVLIILDERHDNYVLFTVSPTLYFLHSESLPALDLKPGEGASGASRRPWVLGKVMEKEYCQSKKAQNRFKVPLGTKFYRVKAVSWNKKV [chain 1 A452S] was run?
A: Its response is ~280 fold binding.

Q: How did the response turn out when chain 1 ENYQVGLAELRTLMTIEKDQCISELISRHEEESNILKAELNKVTSLHNQAFEIEKNLKEQIIELQSKLDSELSALERQKDEKITQQEEKYEAIIQNLEKDRQKLVSSQEQDREQLIQKLNCEKDEAIQTALKEFKLEREVVEKELLEKVKHLENQIAKSPAIDSTRGDSSSLVAELQEKLQEEKAKFLEQLEEQEKRKNEEMQNVRTSLIAEQQTNFNTVLTREKMRKENIINDLSDKLKSTMQQQERDKDLIESLSEDRARLLEEKKKLEEEVSKLRSSSFVPSPYVATAPELYGACAPELPGESDRSAVETADEGRVDSAMETSMMSVQENIHMLSEEKQRIMLLERTLQLKEEENKRLNQRLMSQSMSSVSSRHSEKIAIRDFQVGDLVLIILDERHDNYVLFTVSPTLYFLHSESLPALDLKPGEGASGASRRPWVLGKVMEKEYCQAKKAQNRFKSPLGTKFYRVKAVSWNKKV [chain 1 V461S] was run?
A: Its response is ~6.4 fold binding.
